From patent US20230212319A1, “NOVEL ANTIGEN BINDING DOMAINS AND SYNTHETIC ANTIGEN RECEPTORS INCORPORATING THE SAME” (University of Southern California, priority 2020, published 2023)

B1: 22056 (protein)
chain: MALPVTALLLPLALLLHAARPQLQLQESGPGLVKPSETLSLTCTVSGDSISSGDYYWGWIRQPPGKGLEWIGHIYYSGVTYYNPSLKSRVTISVDTSRNQFSLKLSSVTAADTAVYYCTREDSSNWRSRGQGTLVTVSSLEGSPIKTDVITMDPKDNCSKDANDTLLLQLTNTSAYYMYLLLLLKSVVYFAIITCCLLRRTAFCCNGEKSRAKRSGSGATNFSLLKQAGDVEENPGPTSMDWIWRILFLVGAATGAHSFEVQLVESGGGVVQPGRSLRLSCAASGFSFSGYGMHWVRQAPGKGLEWVAYISYDGSNKYYADSVKGRFTISRDNSKNTLYLQMNSLRAEDTAVYYCAKDPAWGLRLGESSSYDFDIWGQGTMVTVSSTRDKTHTCPPCPAGRADCGFTSESYQQGVLSATILYEILLGKATLYAVLVSALVLMAMVKRKDFRAKRSGSGATNFSLLKQAGDVEENPGPSRGHMTEYKPTVRLATRDDVPRAVRTLAAAFADYPATRHTVDPDRHIERVTELQELFLTRVGLDIGKVWVADDGAAVAVWTTPESVEAGAVFAEIGPRMAELSGSRLAAQQQMEGLLAPHRPKEPAWFLATVGVSPDHQGKGLGSAVVLPGVEAAERAGVPAFLETSAPRNLPFYERLGFTVTADVEVPEGPRTWCMTRKPGA
B2: 22011 (protein)
chain: MALPVTALLLPLALLLHAARPQLQLQESGPGLVKPSETLSLTCTVSGDSISSGDYYWGWIRQPPGKGLEWIGHIYYSGVTYYNPSLKSRVTISVDTSRNQFSLKLSSVTAADTAVYYCTREDSSNWRSRGQGTLVTVSSLEDLKNVFPPEVAVFEPSEAEISHTQKATLVCLATGFYPDHVELSWWVNGKEVHSGVCTDPQPLKEQPALNDSRYCLSSRLRVSATFWQNPRNHFRCQVQFYGLSENDEWTQDRAKPVTQIVSAEAWGRADCGFTSESYQQGVLSATILYEILLGKATLYAVLVSALVLMAMVKRKDSRGRAKRSGSGATNFSLLKQAGDVEENPGPTSMDWIWRILFLVGAATGAHSFEQLQLQESGPGLVKPSETLSLTCTVSGGSISSGDYYWGWIRQPPGKGLEWIGHIYYSGATYYNPSLKSRVTISVDTSRNQFSLKLSSVTAADTAVYYCTRDDSSNWRSRGQGTLVTVSSTRIQNPDPAVYQLRDSKSSDKSVCLFTDFDSQTNVSQSKDSDVYITDKCVLDMRSMDFKSNSAVAWSNKSDFACANAFNNSIIPEDTFFPSPESSCDVKLVEKSFETDTNLNFQNLSVIGFRILLLKVAGFNLLMTLRLWSSRAKRSGSGVKQTLNFDLLKLAGDVESNPGPSRGHMTEYKPTVRLATRDDVPRAVRTLAAAFADYPATRHTVDPDRHIERVTELQELFLTRVGLDIGKVWVADDGAAVAVWTTPESVEAGAVFAEIGPRMAELSGSRLAAQQQMEGLLAPHRPKEPAWFLATVGVSPDHQGKGLGSAVVLPGVEAAERAGVPAFLETSAPRNLPFYERLGFTVTADVEVPEGPRTWCMTRKPGA
B3: 22033 (protein)
chain: MALPVTALLLPLALLLHAARPQLQLQESGPGLVKPSETLSLTCTVSGDSISSGDYYWGWIRQPPGKGLEWIGHIYYSGVTYYNPSLKSRVTISVDTSRNQFSLKLSSVTAADTAVYYCTREDSSNWRSRGQGTLVTVSSLEDKTHTCPPCPAEVKTDSTDHVKPKETENTKQPSKSCHKPKAIVHTEKVNMMSLTVLGLRMLFAKTVAVNFLLTAKLFFLRAKRSGSGVKQTLNFDLLKLAGDVESNPGPTSMDWIWRILFLVGAATGAHSFEVQLVESGGGVVQPGRSLRLSCAASGFSFSGYGMHWVRQAPGKGLEWVAYISYDGSNKYYADSVKGRFTISRDNSKNTLYLQMNSLRAEDTAVYYCAKDPAWGLRLGESSSYDFDIWGQGTMVTVSSTRIQNPDPAVYQLRDSKSSDKSVCLFTDFDSQTNVSQSKDSDVYITDKCVLDMRSMDFKSNSAVAWSNKSDFACANAFNNSIIPEDTFFPSPESSCDVKLVEKSFETDTNLNFQNLSVIGFRILLLKVAGFNLLMTLRLWSSRAKRSGSGVKQTLNFDLLKLAGDVESNPGPSRGHMTEYKPTVRLATRDDVPRAVRTLAAAFADYPATRHTVDPDRHIERVTELQELFLTRVGLDIGKVWVADDGAAVAVWTTPESVEAGAVFAEIGPRMAELSGSRLAAQQQMEGLLAPHRPKEPAWFLATVGVSPDHQGKGLGSAVVLPGVEAAERAGVPAFLETSAPRNLPFYERLGFTVTADVEVPEGPRTWCMTRKPGA
B4: 22031 (protein)
chain: MALPVTALLLPLALLLHAARPQLQLQESGPGLVKPSETLSLTCTVSGDSISSGDYYWGWIRQPPGKGLEWIGHIYYSGVTYYNPSLKSRVTISVDTSRNQFSLKLSSVTAADTAVYYCTREDSSNWRSRGQGTLVTVSSLEGSPIKTDVITMDPKDNCSKDANDTLLLQLTNTSAYYMYLLLLLKSVVYFAIITCCLLRRTAFCCNGEKSRAKRSGSGATNFSLLKQAGDVEENPGPTSMDWIWRILFLVGAATGAHSFEVQLVESGGGVVQPGRSLRLSCAASGFSFSGYGMHWVRQAPGKGLEWVAYISYDGSNKYYADSVKGRFTISRDNSKNTLYLQMNSLRAEDTAVYYCAKDPAWGLRLGESSSYDFDIWGQGTMVTVSSTRIQNPDPAVYQLRDSKSSDKSVCLFTDFDSQTNVSQSKDSDVYITDKCVLDMRSMDFKSNSAVAWSNKSDFACANAFNNSIIPEDTFFPSPESSCDVKLVEKSFETDTNLNFQNLSVIGFRILLLKVAGFNLLMTLRLWSSRAKRSGSGVKQTLNFDLLKLAGDVESNPGPSRGHMTEYKPTVRLATRDDVPRAVRTLAAAFADYPATRHTVDPDRHIERVTELQELFLTRVGLDIGKVWVADDGAAVAVWTTPESVEAGAVFAEIGPRMAELSGSRLAAQQQMEGLLAPHRPKEPAWFLATVGVSPDHQGKGLGSAVVLPGVEAAERAGVPAFLETSAPRNLPFYERLGFTVTADVEVPEGPRTWCMTRKPGA
B5: 22069 (protein)
chain: MALPVTALLLPLALLLHAARPQLQLQESGPGLVKPSETLSLTCTVSGDSISSGDYYWGWIRQPPGKGLEWIGHIYYSGVTYYNPSLKSRVTISVDTSRNQFSLKLSSVTAADTAVYYCTREDSSNWRSRGQGTLVTVSSLEGGGGSGGGGSGGGGSVEIQNPDPAVYQLRDSKSSDKSVCLFTDFDSQTNVSQSKDSDVYITDKCVLDMRSMDFKSNSAVAWSNKSDFACANAFNNSIIPEDTFFPSPESSCDVKLVEKSFETDTNLNFQNLSVIGFRILLLKVAGFNLLMTLRLWSSSSRAKRSGSGVKQTLNFDLLKLAGDVESNPGPTSMDWIWRILFLVGAATGAHSFEVQLLESGGGLIQPGGSLRLSCAASGFTFSSHAMTWVRQAPGKGLEWVSAISGSGDYTHYADSVKGRFTISRDNSKNTVYLQMNSLRAEDSAVYYCAKDEDGGSLLGHRGQGTLVTVSSTRIQNPDPAVYQLRDSKSSDKSVCLFTDFDSQTNVSQSKDSDVYITDKCVLDMRSMDFKSNSAVAWSNKSDFACANAFNNSIIPEDTFFPSPESSCDVKLVEKSFETDTNLNFQNLSVIGFRILLLKVAGFNLLMTLRLWSSRAKRSGSGVKQTLNFDLLKLAGDVESNPGPSRGHMTEYKPTVRLATRDDVPRAVRTLAAAFADYPATRHTVDPDRHIERVTELQELFLTRVGLDIGKVWVADDGAAVAVWTTPESVEAGAVFAEIGPRMAELSGSRLAAQQQMEGLLAPHRPKEPAWFLATVGVSPDHQGKGLGSAVVLPGVEAAERAGVPAFLETSAPRNLPFYERLGFTVTADVEVPEGPRTWCMTRKPGA
B6: 22032 (protein)
chain: MALPVTALLLPLALLLHAARPQLQLQESGPGLVKPSETLSLTCTVSGDSISSGDYYWGWIRQPPGKGLEWIGHIYYSGVTYYNPSLKSRVTISVDTSRNQFSLKLSSVTAADTAVYYCTREDSSNWRSRGQGTLVTVSSLEGSEVKTDSTDHVKPKETENTKQPSKSCHKPKAIVHTEKVNMMSLTVLGLRMLFAKTVAVNFLLTAKLFFLRAKRSGSGVKQTLNFDLLKLAGDVESNPGPTSMDWIWRILFLVGAATGAHSFEVQLVESGGGVVQPGRSLRLSCAASGFSFSGYGMHWVRQAPGKGLEWVAYISYDGSNKYYADSVKGRFTISRDNSKNTLYLQMNSLRAEDTAVYYCAKDPAWGLRLGESSSYDFDIWGQGTMVTVSSTRIQNPDPAVYQLRDSKSSDKSVCLFTDFDSQTNVSQSKDSDVYITDKCVLDMRSMDFKSNSAVAWSNKSDFACANAFNNSIIPEDTFFPSPESSCDVKLVEKSFETDTNLNFQNLSVIGFRILLLKVAGFNLLMTLRLWSSRAKRSGSGVKQTLNFDLLKLAGDVESNPGPSRGHMTEYKPTVRLATRDDVPRAVRTLAAAFADYPATRHTVDPDRHIERVTELQELFLTRVGLDIGKVWVADDGAAVAVWTTPESVEAGAVFAEIGPRMAELSGSRLAAQQQMEGLLAPHRPKEPAWFLATVGVSPDHQGKGLGSAVVLPGVEAAERAGVPAFLETSAPRNLPFYERLGFTVTADVEVPEGPRTWCMTRKPGA
B7: 22080 (protein)
chain: MALPVTALLLPLALLLHAARPQLQLQESGPGLVKPSETLSLTCTVSGDSISSGDYYWGWIRQPPGKGLEWIGHIYYSGVTYYNPSLKSRVTISVDTSRNQFSLKLSSVTAADTAVYYCTREDSSNWRSRGQGTLVTVSSLESGGGGSFEEVQLLESGGGLVQPGGSLRLSCAASGFTFSSYAMSWVRQAPGKGLEWVSSISGSGDYIYYADSVKGRFTISRDISKNTLYLQMNSLRAEDTAVYYCAKEGTGANSSLADYRGQGTLVTVSSTRASTKGPSVFPLAPSSKSTSGGTAALGCLVKDYFPEPVTVSWNSGALTSGVHTFPAVLQSSGLYSLSSVVTVPSSSLGTQTYICNVNHKPSNTKVDKRVEPKSCIPEDTFFPSPESSCDVKLVEKSFETDTNLNFQNLSVIGFRILLLKVAGFNLLMTLRLWSSRAKRSGSGVKQTLNFDLLKLAGDVESNPGPSRGHMTEYKPTVRLATRDDVPRAVRTLAAAFADYPATRHTVDPDRHIERVTELQELFLTRVGLDIGKVWVADDGAAVAVWTTPESVEAGAVFAEIGPRMAELSGSRLAAQQQMEGLLAPHRPKEPAWFLATVGVSPDHQGKGLGSAVVLPGVEAAERAGVPAFLETSAPRNLPFYERLGFTVTADVEVPEGPRTWCMTRKPGA

test system: RAJI cells; assay: JNG assay, co-culture with RAJI cells; format: cell-based; conditions: JNG cells expressing construct, co-culture with Raji
Procedure, shortened: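 Jurkat NFAT-GFP (JNG) cells stably transduced with SARs by lentivirus, with drug selection where the construct carried a resistance gene, then co-cultured with target cells at E:T ~1:2 for ~4–18 h. % GFP-positive cells measured by FACS against parental JNG; +/- to 5+ correspond to ~5–50% GFP-positive.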

Molecule	NFAT-GFP ASSAY: Raji
B1	+/- (refer to approximately 5%, 10%, 20%, 30%, 40% and 50% GFP positive cells)
B2	+/- (refer to approximately 5%, 10%, 20%, 30%, 40% and 50% GFP positive cells)
B3	+/- (refer to approximately 5%, 10%, 20%, 30%, 40% and 50% GFP positive cells)
B4	+/- (refer to approximately 5%, 10%, 20%, 30%, 40% and 50% GFP positive cells)
B5	+ (refer to approximately 5%, 10%, 20%, 30%, 40% and 50% GFP positive cells)
B6	+/- (refer to approximately 5%, 10%, 20%, 30%, 40% and 50% GFP positive cells)
B7	+ (refer to approximately 5%, 10%, 20%, 30%, 40% and 50% GFP positive cells)
